Laboratory results published in PMC5374532, “Rational mutagenesis by engineering disulphide bonds improves Kluyveromyces lactis beta-galactosidase for high-temperature industrial applications” (Scientific Reports, 2017).

Substrate: O=[N+]([O-])c1ccc(O[C@@H]2O[C@H](CO)[C@H](O)[C@H](O)[C@H]2O)cc1
Test: purified protein
Assay type: biochemical, Kluyveromyces lactis
Details: Z buffer (100 mM Na2HPO4, 40 mM NaH2PO4, 10 mM KCl, 1.6 mM MgSO4), 30 °C, 0.3 μg/mL enzyme, substrate 0-20 mM

B1: Kl-β-Gal (Kluyveromyces lactis β-galactosidase) (Kluyveromyces lactis NRRL Y-1140) (protein)
chain: SCLIPENLRNPKKVHENRLPTRAYYYDQDIFESLNGPWAFALFDAPLDAPDAKNLDWETAKKWSTISVPSHWELQEDWKYGKPIYTNVQYPIPIDIPNPPTVNPTGVYARTFELDSKSIESFEHRLRFEGVDNCYELYVNGQYVGFNKGSRNGAEFDIQKYVSEGENLVVVKVFKWSDSTYIEDQDQWWLSGIYRDVSLLKLPKKAHIEDVRVTTTFVDSQYQDAELSVKVDVQGSSYDHINFTLYEPEDGSKVYDASSLLNEENGNTTFSTKEFISFSTKKNEETAFKINVKAPEHWTAENPTLYKYQLDLIGSDGSVIQSIKHHVGFRQVELKDGNITVNGKDILFRGVNRHDHHPRFGRAVPLDFVVRDLILMKKFNINAVRNSHYPNHPKVYDLFDKLGFWVIDEADLETHGVQEPFNRHTNLEAEYPDTKNKLYDVNAHYLSDNPEYEVAYLDRASQLVLRDVNHPSIIIWSLGNEACYGRNHKAMYKLIKQLDPTRLVHYEGDLNALSADIFSFMYPTFEIMERWRKNHTDENGKFEKPLILCEYGHAMGNGPGSLKEYQELFYKEKFYQGGFIWEWANHGIEFEDVSTADGKLHKAYAYGGDFKEEVHDGVFIMDGLCNSEHNPTPGLVEYKKVIEPVHIKIAHGSVTITNKHDFITTDHLLFIDKDTGKTIDVPSLKPEESVTIPSDTTYVVAVLKDDAGVLKAGHEIAWGQAELPLKVPDFVTETAEKAAKINDGKRYVSVESSGLHFILDKLLGKIESLKVKGKEISSKFEGSSITFWRPPTNNDEPRDFKNWKKYNIDLMKQNIHGVSVEKGSNGSLAVVTVNSRISPVVFYYGFETVQKYTIFANKINLNTSMKLTGEYQPPDFPRVGYEFWLGDSYESFEWLGRGPGESYPDKKESQRFGLYDSKDVEEFVYDYPQENGNHTDTHFLNIKFEGAGKLSIFQKEKPFNFKISDEYGVDEAAHACDVKRYGRHYLRLDHAIHGVGSEACGPAVLDQYRLKAQDFNFEFDLAFE
notes: full length, N-terminal FLAG tag kept (YEpFLAG vector); monomer 118 kDa; active as dimer and tetramer
Km: 2150 ± 520 µM | Vmax: 71.9 µmol/min/mg
